Measurements as given in paper doi:10.1101/2021.07.08.451529 (bioRxiv, 2021).

What was measured:
[1] = target: recombinant C. elegans mitochondrial malate dehydrogenase MDH-2 (F20H11.3), mitochondrial import sequence removed (C. elegans); assay: SEC
SEC = target: the molecule itself; assay: SEC

recombinant C. elegans mitochondrial malate dehydrogenase MDH-2 (F20H11.3), mitochondrial import sequence removed (enzyme)
stoichiometry N [1]: 2

B1: recombinant C. elegans cytoplasmic malate dehydrogenase MDH-1 (F46E10.10) (enzyme)
chain: MSAPLRVLVTGAAGQIGYSIVIRIADGTVFGKEQPVELVLLDVPQCSNILEGVVFELQDCALPTLFSVVAVTDEKSAFTGIDYAFLVGAMPRREGMERKDLLAANVKIFKSQGKALAEYAKPTTKVIVVGNPANTNAFIAAKYAAGKIPAKNFSAMTRLDHNRALAQLALKTGTTIGNVKNVIIWGNHSGTQFPDVTHATVNKNGTETDAYAAVGDNAFLQGPFIATVQKRGGVIIEKRKLSSAMSAAKAACDHIHDWHFGTKAGQFVSMAVPSDGSYGIPQGLIFSFPVTIEGGEWKIVQGLSFDDFAKGKIAATTKELEEERDDALKACDDANIA
stoichiometry N (SEC): 2
